Measurements: patent US20220119492A1 (MEDIKINE, published 2022)
Bridge positions count the residues as written; N and C are the ends. Ends that are not written are not given here.

T1: human IL-2Rβ (CD122 protein, Fc Tag) (27-239) (human, UniProt P14784 27-239)
T1 construct: range 27-239; Bought protein; also called hu-IL-2Rβ subunit; IL-2Rβ subunit; not shown: Fc tag of the bought protein
T1 sequence (looked up): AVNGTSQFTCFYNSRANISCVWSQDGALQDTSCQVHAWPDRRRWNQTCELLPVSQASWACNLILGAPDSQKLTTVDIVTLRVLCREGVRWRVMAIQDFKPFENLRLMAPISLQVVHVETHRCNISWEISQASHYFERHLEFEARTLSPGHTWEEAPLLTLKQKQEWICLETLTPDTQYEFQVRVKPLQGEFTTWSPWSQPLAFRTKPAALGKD


Target: T1, human IL-2Rβ (CD122 protein, Fc Tag) …
Assay: phage ELISA competition
Summary of the method: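 Values are IC50s derived from absorbance in a competitive binding ELISA, where a phage tracer competes with test ligands for human IL-2Rβ-Fc across a ligand dilution series. After 50 μL of phage tracer was added without washing for 45 min at 4° C, bound phage was detected with TMB for 1 to 15 min at 25° C. The reaction was then stopped and absorbance read at 450 nm.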

Q: How did the IC50 turn out when HGRWFPCWMAQVGDLCDLEHSN [SEQ ID NO 2676] was run?
A: Its IC50 is < 100 µM.

Q: WYPCWLAKLGELCDLDRAEALP [SEQ ID NO 2677] was tested. Which IC50 did it give?
A: Its IC50 is < 100 µM.

Q: VWFPCWFAQLGDLCDLDQDP (disulfide 5-14 (inferred)) [SEQ ID NO 2678] was tested. Which IC50 did it give?
A: Its IC50 is < 100 µM.

Q: How did the IC50 turn out when ETLGSVWYPCWIASIGELCDLD [SEQ ID NO 2679] was run?
A: Its IC50 is < 100 µM.

Q: How did the IC50 turn out when WYSCWIAQLGELCDLDDMGDRV [SEQ ID NO 2680] was run?
A: Its IC50 is < 100 µM.

Q: With WFPCWLAQLGELCDKE [SEQ ID NO 2681] as the binder, how does the IC50 read?
A: The IC50 was < 100 µM.

Q: WYPCWIAQLGELCDLV [SEQ ID NO 2682] was tested. Which IC50 did it give?
A: Its IC50 is < 100 µM.

Q: With SHLWFPCWMAQLGELCDLEGGP [SEQ ID NO 2683] as the binder, how does the IC50 read?
A: The IC50 was < 100 µM.

Q: RRWLPCWMAHVGELCDLELGN [SEQ ID NO 2684] was tested. Which IC50 did it give?
A: Its IC50 is < 100 µM.

Q: How did the IC50 turn out when YWCWFARVGELCDLDDGGVPS [SEQ ID NO 2685] was run?
A: The IC50 was < 100 µM.

Q: For WYSCWIAQIGELCDLE [SEQ ID NO 2686], which IC50 is on record?
A: Its IC50 is < 100 µM.

Q: How did the IC50 turn out when MNPVGTFYPCWIAKLGELCDLQ [SEQ ID NO 2687] was run?
A: Its IC50 is < 100 µM.

Q: HGGVIGWYPCWMAKVGELCDLD [SEQ ID NO 2688] was tested. Which IC50 did it give?
A: Its IC50 is < 100 µM.

Q: Which IC50 does the source give for WYPCSIALLGELCDLESVHEKS [SEQ ID NO 2689] here?
A: Its IC50 is < 100 µM.

Q: With EQRNRQWWPCWLARLGDLCDLD [SEQ ID NO 2690] as the binder, how does the IC50 read?
A: Its IC50 is < 100 µM.

Q: With WYPCWLAQLGELCDLD [SEQ ID NO 2691] as the binder, how does the IC50 read?
A: The IC50 was < 100 µM.

Q: With WYPCWLAQVGELCDLD [SEQ ID NO 2885] as the binder, how does the IC50 read?
A: The IC50 was < 100 µM.

Q: For WLPCWMAHLGDLCDLE [SEQ ID NO 2692], which IC50 is on record?
A: The IC50 was < 100 µM.

Q: Which IC50 does the source give for RPSWAPCWLAQVGELCDLDHPE [SEQ ID NO 2693] here?
A: The IC50 was < 100 µM.

Q: Which IC50 does the source give for ESKEPAFWPCWMAQLGDLCDLE [SEQ ID NO 2694] here?
A: Its IC50 is < 100 µM.

Q: With RSLRESWFPCWMAKLGDLCDLE [SEQ ID NO 2695] as the binder, how does the IC50 read?
A: The IC50 was < 100 µM.

Q: Which IC50 does the source give for WHPCWLARVGDLCDLD [SEQ ID NO 2696] here?
A: Its IC50 is < 100 µM.

Q: For SRSAGEYYPCWLAQLGELCDLA [SEQ ID NO 2697], which IC50 is on record?
A: The IC50 was < 100 µM.

Q: How did the IC50 turn out when RQVPKQWYPCWMAALGELCDLE (disulfide 10-19 (inferred)) [SEQ ID NO 2698] was run?
A: The IC50 was < 100 µM.

Q: For QVMRLWYPCWMAQLGELCDLE [SEQ ID NO 2700], which IC50 is on record?
A: Its IC50 is < 100 µM.

Q: How did the IC50 turn out when WYPCWMAQLGELCDLDEAPVQP [SEQ ID NO 2701] was run?
A: Its IC50 is < 100 µM.

Q: For RDIWWPCWVAQLGELCDLDDPQ [SEQ ID NO 2702], which IC50 is on record?
A: The IC50 was < 100 µM.

Q: SATWYPCFLANLGELCDLEQEN [SEQ ID NO 2703] was tested. Which IC50 did it give?
A: Its IC50 is < 100 µM.

Q: With YAEWYPCWMARVGEVCDLEVTP [SEQ ID NO 2704] as the binder, how does the IC50 read?
A: Its IC50 is < 100 µM.

Q: With RSGDKAFFPCWLAQLGDLCDLD [SEQ ID NO 2705] as the binder, how does the IC50 read?
A: Its IC50 is < 100 µM.

Q: Which IC50 does the source give for WYPCWMAQLGELCDMD [SEQ ID NO 2706] here?
A: The IC50 was < 100 µM.

Q: For RVSYPCWLARLGELCDMDLEE [SEQ ID NO 2707], which IC50 is on record?
A: Its IC50 is < 100 µM.

Q: TESWYPCWLANLGDLCDLEWSA (disulfide 7-16 (inferred)) [SEQ ID NO 2708] was tested. Which IC50 did it give?
A: Its IC50 is < 100 µM.

Q: Which IC50 does the source give for WLPCWMADVGDLCDLD (disulfide 4-13 (inferred)) [SEQ ID NO 2709] here?
A: Its IC50 is < 100 µM.

Q: How did the IC50 turn out when WHPCWMARLGELCDLD [SEQ ID NO 2710] was run?
A: The IC50 was < 100 µM.

Q: How did the IC50 turn out when QGTKWHWNPCWMAQLGELCDLD (disulfide 10-19 (inferred)) [SEQ ID NO 2711] was run?
A: Its IC50 is < 100 µM.

Q: For KNGPKSWYPCWMAQVGDLCDLD [SEQ ID NO 2712], which IC50 is on record?
A: Its IC50 is < 100 µM.

Q: Which IC50 does the source give for SGTGPAWYPCFLASLGQLCDLE [SEQ ID NO 2713] here?
A: Its IC50 is < 100 µM.

Q: WYPCWMARMGELCDLE [SEQ ID NO 2714] was tested. Which IC50 did it give?
A: Its IC50 is < 100 µM.

Q: WLPCWRAQLGQLCDLD [SEQ ID NO 2715] was tested. Which IC50 did it give?
A: The IC50 was < 100 µM.

Q: With LFPCWLAQLGELCDLE [SEQ ID NO 2716] as the binder, how does the IC50 read?
A: The IC50 was < 100 µM.

Q: How did the IC50 turn out when RYPCWIAQLGELCDLD [SEQ ID NO 2717] was run?
A: Its IC50 is < 100 µM.

Q: Which IC50 does the source give for MYPCWIAHLGELCDLD [SEQ ID NO 2719] here?
A: Its IC50 is < 100 µM.

Q: How did the IC50 turn out when WYPCSIASLGELCDLE [SEQ ID NO 2720] was run?
A: Its IC50 is < 100 µM.

Q: For WLPCYMAQLGDLCDLE [SEQ ID NO 2721], which IC50 is on record?
A: Its IC50 is < 100 µM.

Q: Which IC50 does the source give for WHPCWMAQVGEVCDLD [SEQ ID NO 2722] here?
A: Its IC50 is < 100 µM.

Q: With WYPCWLASLGEVCDLE [SEQ ID NO 2723] as the binder, how does the IC50 read?
A: The IC50 was < 100 µM.

Q: For WWPCSIARLGQLCDLD [SEQ ID NO 2724], which IC50 is on record?
A: Its IC50 is < 100 µM.

Q: How did the IC50 turn out when WYPCWLAQLGELCDAE [SEQ ID NO 2726] was run?
A: The IC50 was < 100 µM.

Q: For WKPCWMALLGELCDLE [SEQ ID NO 2727], which IC50 is on record?
A: The IC50 was < 100 µM.

Q: Which IC50 does the source give for RYPCWRAKLGELCDLD [SEQ ID NO 2728] here?
A: Its IC50 is < 100 µM.

Q: For EEQSRGFLPCWMALLGELCDLD [SEQ ID NO 2729], which IC50 is on record?
A: The IC50 was < 100 µM.

Q: With LGSKRQWYPCWVAHLGELCDLE [SEQ ID NO 2730] as the binder, how does the IC50 read?
A: The IC50 was < 100 µM.

Q: Which IC50 does the source give for ESEGRGWYPCWNALLGELCDLE [SEQ ID NO 2731] here?
A: The IC50 was < 100 µM.

Q: For RWTQAQWYPCWLAQLGELCDLE [SEQ ID NO 2732], which IC50 is on record?
A: Its IC50 is < 100 µM.

Q: Which IC50 does the source give for LHAGRWNPCWLAQLGELCDLE [SEQ ID NO 2733] here?
A: Its IC50 is < 100 µM.

Q: For LSSKGWYPCWKARLGDLCDLE (disulfide 9-18 (inferred)) [SEQ ID NO 2734], which IC50 is on record?
A: The IC50 was < 100 µM.

Q: DMFTHRWYPCSMAKLGELCDLE [SEQ ID NO 2735] was tested. Which IC50 did it give?
A: The IC50 was < 100 µM.

Q: How did the IC50 turn out when MTDRAFWNPCWVARLGELCDLD [SEQ ID NO 2736] was run?
A: Its IC50 is < 100 µM.

Q: With NVTYTQWFPCWLARLGELCDLV (disulfide 10-19 (inferred)) [SEQ ID NO 2737] as the binder, how does the IC50 read?
A: The IC50 was < 100 µM.

Q: How did the IC50 turn out when AMARRYLPCWIAKLGELCELD [SEQ ID NO 2739] was run?
A: Its IC50 is < 100 µM.

Q: For ARGEYRWFPCWMARLGELCDLE [SEQ ID NO 2740], which IC50 is on record?
A: Its IC50 is < 100 µM.

Q: How did the IC50 turn out when YLERSRWYPCFIAQLGELCDLE [SEQ ID NO 2741] was run?
A: The IC50 was < 100 µM.

Q: Which IC50 does the source give for FRVSRDWFPCWMAQLGEVCDLE [SEQ ID NO 2742] here?
A: Its IC50 is < 100 µM.
